Experimental data published in patent EP4678181A1.

Experiments:
[1] = molecular target: T1, biotin-labeled human interleukin-2 receptor beta subunit (ACROBiosystems) (human) (UniProt P14784); test: SPR (Biacore T200), biotin-labeled receptor subunit on streptavidin chip; relative to aldesleukin
T1 sequence (biotin-labeled (site not stated), looked up): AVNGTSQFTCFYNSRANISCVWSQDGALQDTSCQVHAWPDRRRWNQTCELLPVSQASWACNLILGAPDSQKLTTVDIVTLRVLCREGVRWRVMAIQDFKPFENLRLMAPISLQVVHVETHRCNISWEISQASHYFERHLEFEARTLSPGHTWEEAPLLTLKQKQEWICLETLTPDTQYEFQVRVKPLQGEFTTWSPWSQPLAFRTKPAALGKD

[2] = molecular target: biotin-labeled human interleukin-2 receptor alpha subunit (ACROBiosystems) (human) (UniProt P01589); test: as above
biotin-labeled human interleukin-2 receptor alpha subunit (ACROBiosystems) (human), sequence (P01589 22-213): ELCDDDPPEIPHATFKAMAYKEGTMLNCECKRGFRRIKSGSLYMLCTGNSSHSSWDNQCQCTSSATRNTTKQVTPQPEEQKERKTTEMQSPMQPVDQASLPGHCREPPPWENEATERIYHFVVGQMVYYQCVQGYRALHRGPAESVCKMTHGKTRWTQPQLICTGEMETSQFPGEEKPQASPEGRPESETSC

[3] = molecular target: interleukin-2 alpha receptor (SYMANSIS, #4102H) to which a human immunoglobulin Fc region was linked (UniProt P01589); test: SPR (Biacore T200), receptor-Fc captured by anti-human Ig antibody on CM5 chip; relative to analog 1 (aldesleukin)
interleukin-2 alpha receptor (SYMANSIS, #4102H) to which a human immunoglobulin Fc region was linked, sequence (P01589 22-213 limits assumed): as the sequence (P01589 22-213) above

[4] = molecular target: T2, interleukin-2 beta receptor (SYMANSIS, #4122H) to which a human immunoglobulin Fc region was linked (UniProt P14784); test: as above
T2 sequence (looked up): T1 sequence (biotin-labeled (site not stated), looked up)

Measured: Relative binding affinity (%)

interleukin-2 analog 1 (aldesleukin), sequence (P60568 other isoform, or with tags, fused parts or gaps): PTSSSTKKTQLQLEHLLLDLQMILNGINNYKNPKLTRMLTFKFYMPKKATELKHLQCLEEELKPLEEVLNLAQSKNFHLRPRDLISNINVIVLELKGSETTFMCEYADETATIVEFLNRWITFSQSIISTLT

interleukin-2 analog 1 (aldesleukin) (from UniProt P60568 22-153) (ligand)
100%: [1] | [2] | [3] | [4]
